The values that follow are results of earlier work, collected in PMC8508939.

As a reminder, the Kd is the concentration at which binding is half-saturated.

The target in the series is FoxP1 forkhead domain (Homo sapiens) (UniProt Q9H334).

For “FoxP1 forkhead domain (from UniProt Q9H334)”, the Kd was 27 µM.
